Test results published in patent US6074851A, “Catalytic macro molecules having cdc25B like activity” (Pharmacia & UpJohn Company, priority 1997, dated 2000).

B1: human cdc25B Mutein3, cdc25B (356-566) with Arg556Lys/Arg557Lys, SEQ ID NO: 23 (Homo sapiens; R570K/R571K) (protein)
chain: VLRSKSLCHDEIENLLDSDHRELIGDYSKAFLLQTVDGKHQDLKYISPETMVALLTGKFSNIVDKFVIVDCRYPYEYEGGHIKTAVNLPLERDAESFLLKSPIAPCSLDKRVILIFHCEFSSERGPRMCRFIRERDRAVNDYPSLYYPEMYILKGGYKEFFPQHPNFCEPQDYRPMNHEAFKDELKTFRLKTRSWAGERSKKELCSRLQDQ
B2: human cdc25B (364-529) VHR-like catalytic domain, GST-free, GIQ-cdc25B (364-529), SEQ ID NO: 24 (Homo sapiens) (protein)
chain: HDEIENLLDSDHRELIGDYSKAFLLQTVDGKHQDLKYISPETMVALLTGKFSNIVDKFVIVDCRYPYEYEGGHIKTAVNLPLERDAESFLLKSPIAPCSLDKRVILIFHCEFSSERGPRMCRFIRERDRAVNDYPSLYYPEMYILKGGYKEFFPQHPNFCEPQDYR
B3: human cdc25B (356-556) minimal catalytic domain, Val356-Arg556, GST-free, Form II, SEQ ID NO: 9 (Homo sapiens) (protein)
chain: VLRSKSLCHDEIENLLDSDHRELIGDYSKAFLLQTVDGKHQDLKYISPETMVALLTGKFSNIVDKFVIVDCRYPYEYEGGHIKTAVNLPLERDAESFLLKSPIAPCSLDKRVILIFHCEFSSERGPRMCRFIRERDRAVNDYPSLYYPEMYILKGGYKEFFPQHPNFCEPQDYRPMNHEAFKDELKTFRLKTRSWAGERSR
B4: near full length GST-cdc25B (31-566) fusion protein (Homo sapiens) (protein)
chain: GLLLGSHGLLGSPVRAAASSPVTTLTQTMHDLAGLGSRSRLTHLSLSRRASESSLSSESSESSDAGLCMDSPSPMDPHMAEQTFEQAIQAASRIIRNEQFAIRRFQSMPVRLLGHSPVLRNITNSQAPDGRRKSEAGSGAASSSGEDKENDGFVFKMPWKPTHPSSTHALAEWASRREAFAQRPSSAPDLMCLSPDRKMEVEELSPLALGRFSLTPAEGDTEEDDGFVDILESDLKDDDAVPPGMESLISAPLVKTLEKEEEKDLVMYSKCQRLFRSPSMPCSVIRPILKRLERPQDRDTPVQNKRRRSVTPPEEQQEAEEPKARVLRSKSLCHDEIENLLDSDHRELIGDYSKAFLLQTVDGKHQDLKYISPETMVALLTGKFSNIVDKFVIVDCRYPYEYEGGHIKTAVNLPLERDAESFLLKSPIAPCSLDKRVILIFHCEFSSERGPRMCRFIRERDRAVNDYPSLYYPEMYILKGGYKEFFPQHPNFCEPQDYRPMNHEAFKDELKTFRLKTRSWAGERSRRELCSRLQDQ

Columns and labels:
[1] = target: GST-cdc25B (residues 355-566) fusion protein (Homo sapiens, UniProt P30305); settings: PNPP as substrate, 37° C.; cited from earlier work
[2] = substrate: O=[N+]([O-])c1ccc(OP(=O)(O)O)cc1; assay: purified protein, by the assay type; settings: other: PNPP as substrate, 25° C., pH 8.0

Molecule | Km [1] | Km [2] | Vmax [2]
O=[N+]([O-])c1ccc(OP(=O)(O)O)cc1 [PNPP, p-nitrophenyl phosphate] | 16.6 mM | – | –
B1 | – | 2.0 mM | –
B2 | – | 28 mM | 250 nmol/min/mg
B3 | – | 2.0 mM | –
B4 | – | 12.0 mM | –
